Test results: the supplement of paper PMC12067230
± gives the uncertainty stated by the source.

assay: amyloid nucleation score relative to WT ADan (yeast Sup35 reporter selection) (log enrichment difference); higher = more amyloid nucleation
Description: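 Deep mutational scan of the ADan peptide fused to the Sup35 nucleation domain (SupN) in S. cerevisiae [psi-pin-], covering all single amino-acid substitutions and stop truncations (truncations = sequence up to the stop). After 24 h Cu2+ induction, cells were selected on -ADE-URA plates for 7 d at 30 °C. The nucleation score is log enrichment (output/input, deep sequencing) minus that of WT ADan, as the error-weighted mean of 3 biological replicates (DiMSum).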

| Substance | amyloid nucleation score |
| --- | --- |
| EAS [N-4-*] | -2.54 ± 0.48 |
| EASN [C-5-*] | -4.07 ± 0.81 |
| EASNC [F-6-*] | -3.12 ± 0.32 |
| EASNCF [A-7-*] | -4.37 ± 0.56 |
| EASNCFA [I-8-*] | -3.92 ± 0.58 |
| EASNCFAI [R-9-*] | -3.67 ± 0.55 |
| EASNCFAIR [H-10-*] | -4.06 ± 0.6 |
| EASNCFAIRH [F-11-*] | -3.45 ± 0.39 |
| EASNCFAIRHF [E-12-*] | -3.42 ± 0.34 |
| EASNCFAIRHFE [N-13-*] | -5.86 ± 0.85 |
| EASNCFAIRHFEN [K-14-*] | -4.92 ± 0.57 |
| EASNCFAIRHFENK [F-15-*] | -4.43 ± 0.56 |
| EASNCFAIRHFENKF [A-16-*] | -4.34 ± 0.67 |
| EASNCFAIRHFENKFA [V-17-*] | -5.63 ± 1.4 |
| EASNCFAIRHFENKFAV [E-18-*] | -3.23 ± 0.49 |
| EASNCFAIRHFENKFAVE [T-19-*] | -3.43 ± 0.55 |
| EASNCFAIRHFENKFAVET [L-20-*] | -4.16 ± 0.68 |
